# ± gives the standard deviation.
# Assay: protein stability index of a GFP-peptide fusion (GPS, HEK-293T) (PSI 1-6); higher = more stable
# [1] = treatment: DMSO, c terminus: a fixed tail appended
# [2] = treatment: MLN4924 1 uM, 8 h, c terminus: a fixed tail appended
# [3] = treatment: DMSO, c terminus: native
# [4] = treatment: MLN4924 1 uM, 8 h, c terminus: native
# 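Also: 24-mer peptide tiles fused after GFP, lentivirally expressed, FACS-sorted into six equal bins by GFP/DsRed ratio, decoded by Illumina sequencing, PSI is the read-weighted mean bin number.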
Sequence,protein stability index [1],protein stability index [2],protein stability index [3],protein stability index [4]
FCQMLAVVETINAAIGVTTSPVLP [HACD3],2.69 ± 0.4,2.54 ± 0.23,–,–
SPMLIVFHGKYSTINPLWHIRHLG [GLT8D2],2.82 ± 0.44,2.47 ± 0.71,–,–
SKESSKEKKLTVRQDLEDRYAEHV [C22orf31],5.09 ± 0.27,5.16 ± 0.1,–,–
AALPLAAEETANLPPSPPPSPASE [MAP2],5.27 ± 0.13,5.09 ± 0.18,–,–
NLSKTQNMERFGEDNLEDDDVEMK [CDC14A],5.4 ± 0.061,5.4 ± 0.12,–,–
LLLILCMQHSFPEPGRLYLDLILA [TMEM192],3.3 ± 0.48,3.11 ± 0.32,–,–
LQMKLEKLREKERKKEAKRKISSL [FAM50A],3.71 ± 0.45,3.98 ± 0.53,–,–
LPSLRTVSSSVIEQLFFVRLVGKT [NR2F2],2.44 ± 0.37,2.28 ± 0.071,–,–
DGSVRIWELREKQQLAAEPVPTGF [WDR41],3.87 ± 0.16,3.72 ± 0.32,–,–
DDPATLGPHLGLRGVPQSTAASS [DYRK1B],–,–,3.28 ± 0.28,3.29 ± 0.085
EDSIFGDPKKLLTQYFVQENYLEY [MAGEA6],2.88 ± 0.34,2.62 ± 0.11,–,–
EGYILREDGKTCRRKDVCQAIDHG [MATN2],4.31 ± 0.63,4.44 ± 0.22,–,–
NSTGSGRGKKLMVLTEPILIETYT [TPRG1],2.57 ± 0.18,2.75 ± 0.24,–,–
FQMEKIEHGYENMNHFTVNLNREE [TRIM55],3.21 ± 0.47,3.57 ± 0.59,–,–
RTKSRTWAGEKSKREMYSRLKKL [CDC25A],–,–,4.36 ± 0.32,4.51 ± 0.38
DMWRSENQNRAYVTLAAHFLGLGA [ZBED1],2.13 ± 0.24,2.01 ± 0.4,–,–
STLGTLQPPPAPPKKIMPEAHSHY [PPFIA4],4.02 ± 0.18,4.24 ± 0.1,–,–
LLQIIDTTLLKCYLHTNVALVAPL [VPS39],3.13 ± 0.49,3.38 ± 0.21,–,–
NVAASNAKLALFYDWLFFSPDKDS [INTS3],2.39 ± 0.46,2.55 ± 0.55,–,–
EEITEESLEESVGKPLYLIFRNLC [INTS3],2.79 ± 0.58,2.88 ± 0.38,–,–
DTFHQDNQPSGLIRTYLGRSPLVS [RHOBTB3],3.24 ± 0.1,3.24 ± 0.16,–,–
WRKRFRPREHHGRGGMLSASAETL [PPFIA4],3.15 ± 0.22,3.26 ± 0.056,–,–
QKASLLIQQALTMFPGVLLPLLES [TCF25],3.23 ± 0.48,3.51 ± 0.29,–,–

Sequence,protein stability index [1],protein stability index [2],protein stability index [3],protein stability index [4]
QSKILKVIRKNIVKKCLELFSELA [HSP90AB1],2.47 ± 0.37,3.39 ± 0.91,–,–
PLGLEVDQFLEDVRLQERTSGGLL [NOP53],4.42 ± 0.14,4.47 ± 0.12,–,–
GTENGAIDAVPVDENLFTGEDLDE [ZC3H15],5.7 ± 0.3,5.52 ± 0.44,–,–
VISQLEQGTELWVAERGTTQGCHP [ZNF8],3.96 ± 0.29,3.99 ± 0.45,–,–
GRYSVHNAGISFSVKKQGETVADV [MLH1],3.79 ± 0.25,3.85 ± 0.37,–,–
VPVPPAAAPPPPATPIVPVVPPTP [BRD3],4.75 ± 0.43,4.75 ± 0.16,–,–
ELQLEQSRAANQEQRANDLEQIME [CEP70],5.1 ± 0.15,5.16 ± 0.092,–,–
PSMIATGSVGAAICGLQQDEEVSS [CCND2],5.41 ± 0.1,5.15 ± 0.27,–,–
TSSVSCALDEAAAALTRMRAESTA [ANKRD17],3.06 ± 0.42,3.05 ± 0.32,–,–
VGLGTCSMFSRVGGIIAPFIPSLK [SLC22A15],2.1 ± 0.36,2.33 ± 0.45,–,–
NSNTPVDDFHTNDVCSFPNALVTK [FEM1B],4.68 ± 0.26,4.5 ± 0.18,–,–
VSGLDSSYLREQMLNEPLVREIVK [GAN],3.14 ± 0.26,2.96 ± 0.25,–,–
KEMSKVWNDLRPKLSCLFAGPHST [SNX8],2.63 ± 0.7,2.79 ± 0.59,–,–
ELEIELQSQLSMKAGLENSLAETE [KRT15],4.77 ± 0.33,4.75 ± 0.25,–,–
VDSAEYSCLKAIVLFTSDACGLSD [NR2F2],2.23 ± 0.38,2.25 ± 0.31,–,–
YPDQSPSEDWTMEERFRPLTFHGL [CLCN6],3.23 ± 0.18,3.37 ± 0.18,–,–
SARYLSQCQEAEQARAELTAQHQR [FBF1],4.76 ± 0.28,4.57 ± 0.15,–,–
LAPTFSNLLLQPTTNPHTSASHRP [SMG5],3.55 ± 0.15,3.61 ± 0.26,–,–
YGRFIRWLNKEKGIFKIEDSAQVA [SPDEF],2.37 ± 0.35,2.48 ± 0.2,–,–
NIRPADSRWVRDPRYREDPCKQCK [FBXO34],4.13 ± 0.36,4.28 ± 0.13,–,–
GACIVNSENKIVGIGYNGMPNGCS [DCTD],3.04 ± 0.33,3.21 ± 0.43,–,–
RRLEAFEHPNVVRLMDVCATSRTD [CDK4],3.9 ± 0.13,3.91 ± 0.27,–,–
GQPSEPEHGPSPGQDTFCQGKADG [CHIT1],5.45 ± 0.32,5.63 ± 0.23,–,–

Sequence,protein stability index [1],protein stability index [2],protein stability index [3],protein stability index [4]
YSIISLLLKDKVRERIQILKTSEV [PTPN9],2.9 ± 1.2,2.44 ± 0.31,–,–
ILNPHVHVIGEDAACIAYIRLTQY [CAMK2B],2.51 ± 0.63,2.31 ± 0.27,–,–
LDLKRQYDRVAQLDQLLHYRKKSA [CHGB],3.23 ± 0.26,3.63 ± 0.51,–,–
LEQMIKENQEKTEDQYEENSHLTS [ETS2],5.7 ± 0.16,5.51 ± 0.14,–,–
FEGRTPMHVACQHGQENIVRILLR [RIPK4],2.95 ± 0.49,2.95 ± 0.2,–,–
LNSPPGPHSAKTEEHTTILRPSYT [CDC14A],4.41 ± 0.61,4.651 ± 0.039,–,–
EKDRIKSFTTNEKAILEQNFRDLV [TRIM29],3.53 ± 0.27,3.82 ± 0.43,–,–
FVGAGRMAGAIAQGLIRAGKVEAQ [PYCR3],2.96 ± 0.52,2.9 ± 0.33,–,–
ILFYCHFPDLLLTKRDSFLKRLYR [ALG2],2.81 ± 0.6,2.18 ± 0.51,–,–
YADHNYGARPPPTPPASPPPSVLI [KMT2E],3.06 ± 0.32,3.34 ± 0.4,–,–
PCCSSSPEEPLNGESYESCCPTSR [FEM1A],4.28 ± 0.22,4.64 ± 0.31,–,–
LIHPELNEGLMKWENRHEGVFKFL [ELF3],2.36 ± 0.15,2.48 ± 0.19,–,–
ASKTVFFFFSSPGNNNGTSIEDGQ [BTBD1],2.55 ± 1.3,2.29 ± 0.74,–,–
NPYYDPLQWKSSHFERRDNMNDNF [CHGB],3.27 ± 0.1,3.14 ± 0.23,–,–
PDGLRSGDGVPPRSLQDGTREGFG [LCOR],4.95 ± 0.11,5.15 ± 0.16,–,–
TIVTDVFQGSMRIFTKKLPHPDLP [USP39],2.31 ± 0.099,2.38 ± 0.29,–,–
TWMFFFMMCVAERTYKQRFLFAKL [PHTF1],2.83 ± 0.22,2.92 ± 0.36,–,–
TQTWCTQSWNNQAWNSPFYNCGEE [NANOGP8],3.07 ± 0.25,3.2 ± 0.12,–,–
PFNQSTFNNVVEQNFKNRESYPED [DLC1],4.62 ± 0.14,4.66 ± 0.16,–,–
VLPEDRILREELQKQRLREILEQQ [ZNF277],4.63 ± 0.4,4.21 ± 0.41,–,–
WKYALDMQQSNLDPLSPMTASSLL [FEM1C],2.68 ± 0.19,2.84 ± 0.42,–,–
NTSIRVADFGSATFDHEHHTTIVA [CLK3],3.52 ± 0.45,3.27 ± 0.28,–,–
GRDGYDYDGYRLRVEFPRSGRGTG [SRSF1],3.17 ± 0.37,3.26 ± 0.36,–,–

Sequence,protein stability index [1],protein stability index [2],protein stability index [3],protein stability index [4]
LNECVGTAYWALAGSIGGLFFAVG [SLC22A15],3.19 ± 1.4,3.72 ± 0.21,–,–
LFLLLGHGASPGLRDGGGLTPLEL [ANKRD9],2.29 ± 0.32,2.36 ± 0.59,–,–
QVTCLRTQVLEDSEDSFCRRHPGL [TRAF3IP2],4.05 ± 0.2,4.08 ± 0.35,–,–
NNLLSAPPPDVTQLTPPSHDLTDN [ANKRD17],5.12 ± 0.28,5.18 ± 0.18,–,–
MAVTGWLESLRTAQKTALLQDGRR [DPCD],2.51 ± 0.14,2.68 ± 0.17,–,–
QPTTLVLPPQYVDDVISRIDRMFP [MED27],3.67 ± 0.24,3.98 ± 0.074,–,–
FLSYYRLTRFLSRVIKCDPDCLRA [CCND1],2.23 ± 0.56,2.25 ± 0.54,–,–
PHQPVTAITRVSDRFSGETSAAAL [SMTNL2],4.32 ± 0.39,4.32 ± 0.17,–,–
TGIEYIVAQGPTNQGLNVMVWNQN [ADAMTSL2],2.175 ± 0.019,2.1 ± 0.24,–,–
LGVGLGVEISRRLRHSNPRADPLV [SPNS1],3.082 ± 0.029,2.96 ± 0.22,–,–
PAGERRIYRHRIPSTICFGQGAAR [ZNF511],2.89 ± 0.5,3.22 ± 0.45,–,–
TNCQKVLNMWCCCFFKRRKRKTIQ [CSNK1G3],4.01 ± 0.26,3.77 ± 0.21,–,–
AEKRKRQAEIENKRRQLEDERRQL [PALM],4.68 ± 0.5,4.94 ± 0.32,–,–
LEIDSGVITLDPQTASRSLVLSED [TRIM15],4.69 ± 0.19,4.74 ± 0.32,–,–
IFQIGVLGFGPTYVVLAYTLPPAS [SOAT1],2.97 ± 0.27,3.23 ± 0.68,–,–
SGTVAAVLTLPFDVVKTQRQVALG [SLC25A39],2.15 ± 0.32,2.27 ± 0.3,–,–
AERVTLADFKGVLQRPSYKFFFKS [DVL3],2.29 ± 0.3,2.63 ± 0.44,–,–
KRPYAKELETVDFKDKLEETKGQI [SERPINB5],5.12 ± 0.21,5.23 ± 0.14,–,–
GIREASSGGGGSSSNFHINVEESV [KRT15],4.92 ± 0.18,5.11 ± 0.28,–,–
LGGAIDFGAAYVLEQASSHIGNST [ATL3],3.03 ± 0.23,3.2 ± 0.15,–,–

# From the supplement of paper PMC10567573
